According to the supplement of paper PMC10266784:

B1: library; numbered along this chain (parent)
chain: MAAAAAAAAEQQSSNGPVKKSMREKAVERRSVNKEHNSNFKAGYIPIDEDRLHKTGLRGRKGNLAICVIILLFILAVINLIITLVIWAVIRIGPNGCDSMEFHESGLLRFKQVSDMGVIHPLYKSTVGGRRNENLVITGNNQPIVFQQGTTKLSVENNKTSITSDIGMQFFDPRTQNILFSTDYETHEFHLPSGVKSLNVQKASTERITSNATSDLNIKVDGRAIVRGNEGVFIMGKTIEFHMGGNMELKAENSIILNGSVMVSTTRLPSSSSGDQLGSGDWVRYKLCMCADGTLFKVQVTSQNMGCQISDNPCGNTH

Variants of: B1
Assay: SGCB cell-surface expression functional score (HA stain, bin4 vs bin1, normalised to synonymous) (log10 ratio); higher = more cell-surface SGCB (functional)
Summary of the method: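 HEK293 cells stably expressing alpha-, gamma- and delta-sarcoglycan received codon-saturation libraries of HA-tagged, YFP-fused human beta-sarcoglycan by lentiviral transduction at MOI <0.1, performed in duplicate. Cells positive for YFP were sorted after 72 hours and cultured for 5–7 days, then stained on ice with Alexa Fluor 647 anti-HA and fixed. Fixed cells were sorted into four 5% intensity bins and amplicon-sequenced, and the log ratio of highest-bin to lowest-bin variant frequency, as a median over codons and transductions, gives the functional score. Per section, synonymous variants were scaled to mean 0, SD 0.5.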

Compared with MAAAAAAAAEQQSSNGPVKKSMREKAVERRSVNKEHNSNFKAGYIPIDEDRLHKTGLRGRKGNLAICVIILLFILAVINLIITLVIWAVIRIGPNGCDSMEFHESGLLRFKQVSDMGVIHPLYKSTVGGRRNENLVITGNCQPIVFQQGTTKLSVENNKTSITSDIGMQFFDPRTQNILFSTDYETHEFHLPSGVKSLNVQKASTERITSNATSDLNIKVDGRAIVRGNEGVFIMGKTIEFHMGGNMELKAENSIILNGSVMVSTTRLPSSSSGDQLGSGDWVRYKLCMCADGTLFKVQVTSQNMGCQISDNPCGNTH [N141C], MAAAAAAAAEQQSSNGPVKKSMREKAVERRSVNKEHNSNFKAGYIPIDEDRLHKTGLRGRKGNLAICVIILLFILAVINLIITLVIWAVIRIGPNGCDSMEFHESGLLRFKQVSDMGVIHPLYKSTVGGRRNENLVITGNAQPIVFQQGTTKLSVENNKTSITSDIGMQFFDPRTQNILFSTDYETHEFHLPSGVKSLNVQKASTERITSNATSDLNIKVDGRAIVRGNEGVFIMGKTIEFHMGGNMELKAENSIILNGSVMVSTTRLPSSSSGDQLGSGDWVRYKLCMCADGTLFKVQVTSQNMGCQISDNPCGNTH [N141A] is lower in “SGCB cell-surface expression functional score (log10)” value: 0.03 for the first, -0.39 for the second.

MAAAAAAAAEQQSSNGPVKKSMREKAVERRSVNKEHNSNFKAGYIPIDEDRLHKTGLRGRKGNLAICVIILLFILAVINLIITLVIWAVIRIGPNGCDSMEFHESGLLRFKQVSDMGVIHPLYKSTVGGRRNENLVITGTNQPIVFQQGTTKLSVENNKTSITSDIGMQFFDPRTQNILFSTDYETHEFHLPSGVKSLNVQKASTERITSNATSDLNIKVDGRAIVRGNEGVFIMGKTIEFHMGGNMELKAENSIILNGSVMVSTTRLPSSSSGDQLGSGDWVRYKLCMCADGTLFKVQVTSQNMGCQISDNPCGNTH [N140T] and MAAAAAAAAEQQSSNGPVKKSMREKAVERRSVNKEHNSNFKAGYIPIDEDRLHKTGLRGRKGNLAICVIILLFILAVINLIITLVIWAVIRIGPNGCDSMEFHESGLLRFKQVSDMGVIHPLYKSTVGGRRNENLVITGQNQPIVFQQGTTKLSVENNKTSITSDIGMQFFDPRTQNILFSTDYETHEFHLPSGVKSLNVQKASTERITSNATSDLNIKVDGRAIVRGNEGVFIMGKTIEFHMGGNMELKAENSIILNGSVMVSTTRLPSSSSGDQLGSGDWVRYKLCMCADGTLFKVQVTSQNMGCQISDNPCGNTH [N140Q] are within 0.2 log units of each other in “SGCB cell-surface expression functional score (log10)” value: -0.19 for the first, -0.33 for the second.

Going from MAAAAAAAAEQQSSNGPVKKSMREKAVERRSVNKEHNSNFKAGYIPIDEDRLHKTGLRGRKGNLAICVIILLFILAVINLIITLVIWAVIRIGPNGCDSMEFHESGLLRFKQVSDMGVIHPLYKSTVGGRRNENLVITGDNQPIVFQQGTTKLSVENNKTSITSDIGMQFFDPRTQNILFSTDYETHEFHLPSGVKSLNVQKASTERITSNATSDLNIKVDGRAIVRGNEGVFIMGKTIEFHMGGNMELKAENSIILNGSVMVSTTRLPSSSSGDQLGSGDWVRYKLCMCADGTLFKVQVTSQNMGCQISDNPCGNTH [N140D] to MAAAAAAAAEQQSSNGPVKKSMREKAVERRSVNKEHNSNFKAGYIPIDEDRLHKTGLRGRKGNLAICVIILLFILAVINLIITLVIWAVIRIGPNGCDSMEFHESGLLRFKQVSDMGVIHPLYKSTVGGRRNENLVITGFNQPIVFQQGTTKLSVENNKTSITSDIGMQFFDPRTQNILFSTDYETHEFHLPSGVKSLNVQKASTERITSNATSDLNIKVDGRAIVRGNEGVFIMGKTIEFHMGGNMELKAENSIILNGSVMVSTTRLPSSSSGDQLGSGDWVRYKLCMCADGTLFKVQVTSQNMGCQISDNPCGNTH [N140F], the “SGCB cell-surface expression functional score (log10)” value falls from -0.24 to -0.56.

MAAAAAAAAEQQSSNGPVKKSMREKAVERRSVNKEHNSNFKAGYIPIDEDRLHKTGLRGRKGNLAICVIILLFILAVINLIITLVIWAVIRIGPNGCDSMEFHESGLLRFKQVSDMGVIHPLYKSTVGGRRNENLVITGVNQPIVFQQGTTKLSVENNKTSITSDIGMQFFDPRTQNILFSTDYETHEFHLPSGVKSLNVQKASTERITSNATSDLNIKVDGRAIVRGNEGVFIMGKTIEFHMGGNMELKAENSIILNGSVMVSTTRLPSSSSGDQLGSGDWVRYKLCMCADGTLFKVQVTSQNMGCQISDNPCGNTH [N140V] and MAAAAAAAAEQQSSNGPVKKSMREKAVERRSVNKEHNSNFKAGYIPIDEDRLHKTGLRGRKGNLAICVIILLFILAVINLIITLVIWAVIRIGPNGCDSMEFHESGLLRFKQVSDMGVIHPLYKSTVGGRRNENLVITGGNQPIVFQQGTTKLSVENNKTSITSDIGMQFFDPRTQNILFSTDYETHEFHLPSGVKSLNVQKASTERITSNATSDLNIKVDGRAIVRGNEGVFIMGKTIEFHMGGNMELKAENSIILNGSVMVSTTRLPSSSSGDQLGSGDWVRYKLCMCADGTLFKVQVTSQNMGCQISDNPCGNTH [N140G] are within 0.2 log units of each other in “SGCB cell-surface expression functional score (log10)” value: 0.16 for the first, 0.06 for the second.

For MAAAAAAAAEQQSSNGPVKKSMREKAVERRSVNKEHNSNFKAGYIPIDEDRLHKTGLRGRKGNLAICVIILLFILAVINLIITLVIWAVIRIGPNGCDSMEFHESGLLRFKQVSDMGVIHPLYKSTVGGRRNENLVITGYNQPIVFQQGTTKLSVENNKTSITSDIGMQFFDPRTQNILFSTDYETHEFHLPSGVKSLNVQKASTERITSNATSDLNIKVDGRAIVRGNEGVFIMGKTIEFHMGGNMELKAENSIILNGSVMVSTTRLPSSSSGDQLGSGDWVRYKLCMCADGTLFKVQVTSQNMGCQISDNPCGNTH [N140Y], the “SGCB cell-surface expression functional score (log10)” value was -0.05.
